Series [1] addresses T1, GST-ECT1 (Arabidopsis, UniProt Q3MK94 1-428).
T1 sequence (looked up): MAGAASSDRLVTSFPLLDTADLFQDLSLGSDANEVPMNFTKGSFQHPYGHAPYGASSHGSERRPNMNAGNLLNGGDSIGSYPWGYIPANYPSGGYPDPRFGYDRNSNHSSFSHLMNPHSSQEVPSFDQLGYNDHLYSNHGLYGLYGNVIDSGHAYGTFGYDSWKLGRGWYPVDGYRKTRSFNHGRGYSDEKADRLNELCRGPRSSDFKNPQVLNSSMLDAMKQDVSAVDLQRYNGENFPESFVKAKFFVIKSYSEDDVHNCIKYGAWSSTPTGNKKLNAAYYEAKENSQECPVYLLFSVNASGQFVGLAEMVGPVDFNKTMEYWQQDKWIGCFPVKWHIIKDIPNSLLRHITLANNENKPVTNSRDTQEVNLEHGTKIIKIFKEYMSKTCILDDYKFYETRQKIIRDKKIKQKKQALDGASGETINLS
The series can be described thus: pull-down.

In series [2] the target is T2, GST-ECT1 (Arabidopsis thaliana (Col-0), UniProt Q3MK94 1-428).
T2 sequence: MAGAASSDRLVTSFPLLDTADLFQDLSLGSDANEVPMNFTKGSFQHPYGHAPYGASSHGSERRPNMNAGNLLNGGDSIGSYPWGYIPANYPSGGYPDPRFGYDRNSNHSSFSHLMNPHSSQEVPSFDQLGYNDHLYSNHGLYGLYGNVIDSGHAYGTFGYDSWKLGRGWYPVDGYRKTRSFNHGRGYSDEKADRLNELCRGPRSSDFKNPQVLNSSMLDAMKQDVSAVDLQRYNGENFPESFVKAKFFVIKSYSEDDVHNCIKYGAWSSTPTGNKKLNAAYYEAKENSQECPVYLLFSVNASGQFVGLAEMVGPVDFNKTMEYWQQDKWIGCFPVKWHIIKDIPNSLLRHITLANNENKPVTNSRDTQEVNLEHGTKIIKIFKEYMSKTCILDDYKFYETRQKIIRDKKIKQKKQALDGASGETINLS
The series can be described thus: EMSA. (A gel shift assay detects complexes by their altered migration in electrophoresis.)

B1: MBP-ECT1 (natural protein, Arabidopsis, UniProt Q3MK94 1-428, looked up)
chain: MAGAASSDRLVTSFPLLDTADLFQDLSLGSDANEVPMNFTKGSFQHPYGHAPYGASSHGSERRPNMNAGNLLNGGDSIGSYPWGYIPANYPSGGYPDPRFGYDRNSNHSSFSHLMNPHSSQEVPSFDQLGYNDHLYSNHGLYGLYGNVIDSGHAYGTFGYDSWKLGRGWYPVDGYRKTRSFNHGRGYSDEKADRLNELCRGPRSSDFKNPQVLNSSMLDAMKQDVSAVDLQRYNGENFPESFVKAKFFVIKSYSEDDVHNCIKYGAWSSTPTGNKKLNAAYYEAKENSQECPVYLLFSVNASGQFVGLAEMVGPVDFNKTMEYWQQDKWIGCFPVKWHIIKDIPNSLLRHITLANNENKPVTNSRDTQEVNLEHGTKIIKIFKEYMSKTCILDDYKFYETRQKIIRDKKIKQKKQALDGASGETINLS
In the case of B1, in the series with GST-ECT1 [1], the binding result was “binds”.

B2: UGUAA RNA (unmodified) (ssRNA)
RNA: UCUUUUGUAAGACUUGUACUCUUUA
As for B2, the binding result with GST-ECT1 [2] is reported as “no binding”.

B3: UGUm6AA RNA (ssRNA)
RNA: UCUUUUGUAAGACUUGUACUCUUUA
modifications: m6A at position 9
Take B3: the binding result with GST-ECT1 [2] is listed as “binds”.

Source of the values: article doi:10.1101/2024.07.24.604550 (bioRxiv, 2024).
